Key:
[1] = Separate DIO mice study with inactivated control molecules, daily sc 22 days; type: in vivo, DIO mice (C57BL/6 mice on high fat diet)
Protocol: FIGS. 9A-9G show In vivo efficacy in DIO mice. To evaluate the body weight, food intake and glucose effects of the fusion proteins, 17 week old DIO mice (C57BL/6 mice on high fat diet for 13 weeks) were dosed everyday subcutaneously with different concentrations of proteins for 22 days. […] Data are expressed as mean values and standard error (SEM) for FIGS. 9A and 9C-G. n=5 for each treatment group. For FIG. 9B, a pooled food intake was measured for each treatment group.
17 week old DIO male C57BL/6 mice (˜45 g) were injected everyday subcutaneously with designated proteins (i.e., MLC089, MLC093) for 28 days. Food intake and body weight were measured daily and five animals were used for each treatment group. Fasting glucose was also monitored on designated days. Body weight and glucose were monitored for each individual animal, but food intake for each group animals was measured together. Day 1 and Day 28 are first day and last day of molecule dosage. % BW loss=100*(BW on Day n-BW on Day 1)/(BW on Day 1). Cumulative food intake on Day n represents sum of food intake from Day 1 to Day n. Terminal blood was collected and EDTA-2K plasma was prepared and frozen at −80 C for biomarker measurement. Liver was also collected and frozen in liquid nitrogen and store at −80 C. Data are indicated as mean values and standard error (SEM) or pooled values.

[2] = Efficacy in spontaneously obese cynomolgus monkeys, sc every three days for 49 days; type: in vivo; details: obese monkeys, 1, 3 and 10 nmol/kg sc every three days
Protocol: FIGS. 10A-10B show In vivo efficacy in obese monkey. Naïve male spontaneously obese cynomolgus monkeys were injected every three days subcutaneously with designated protein MLC093 with different concentrations for 49 days.
Naïve male spontaneously obese cynomolgus monkeys with BMI>40 kg/m^2 were injected every three days subcutaneously with designated protein MLC093 for 49 days. Body weight was measured once a week and food intake was measured daily for each monkey. Six animals were used for vehicle or MLC093 1 nmol/kg treamment group and seven animals were used for MLC093 3 nmol/kg or MLC093 10 nmol/kg treamment group. Day 1 and Day 49 are first day and last day of molecule dosage. % BW loss=100*(BW on Day n-BW on Day 1)/(BW on Day 1). Cumulative food intake on Day n represents sum of food intake from Day 1 to Day n. Data are indicated as mean values and standard error (SEM) or pooled values.

[3] = Stability study: SEC-HPLC (% HMW, % LMW), RP-UPLC and LC/MS after 2 weeks storage; type: physicochemical
Protocol: To test the stability, the different conjugated fusion proteins were formulated in buffers with different compositions (pH6, 7, 7.4 and 8.0) and stored at 4° C. and 37° C. or 40° C. for 2 weeks. The % High Molecular Weight aggregate (HMW) and % Low Molecular Weight (LMW) were analyzed by size exclusion chromatography (SEC)-HPLC. The concentration and modifications were analyzed by reverse phase (RP)-UPLC and LC/MS.

[4] = PK study in non-human primates, single sc dose 5 nmol/kg, plasma ELISA; details: monkey, single sc dose 5 nmol/kg

B1: MLC093: fusion polypeptide SEQ ID NO: 381 conjugated with Moiety B at 33C of Linker (conjugate)
chain: HGEGTFTSDVSSYLEEQAAKEFIAWLVRGGGGAQPGAQPGAQPGAQPGAQPGAQPGAQPGAQPCQEPGAQPGQEPGAQPGQEPGAQPGQEPGAQPGQEPGAQPGQEPGAQPARQGDHCPLGPGRCCRLHTVRASLEDLGWADWVLSPREVQVTMCIGACPSQFRAANLHAQIKTSLHRLKPDTVPAPCCVPASYNPMVLIQKTDTGVSLQTYDDLLAKDCHCI
modifications: Moiety B conjugated at linker Cys33
**Q.** For B1, which liver triglyceride contents ([1]; Day 22, FIG. 9G, relative to vehicle or MLC114 and MLC113) is on record?
**A.** reduction of liver triglyceride contents

**Q.** And the efficacy ([1]; separate DIO study, FIG. 9A-9G, versus MLC114 and MLC113)?
**A.** better efficacy than corresponding control molecules having inactivated GLP-1 or GDF15 mutants

**Q.** What about the body weight reduction ([1]; separate DIO study, FIG. 9A, versus MLC114 and MLC113) of the same molecule?
**A.** better body weight reduction, food intake suppression and glucose control

**Q.** And the food intake suppression ([1]; separate DIO study, FIG. 9B, versus MLC114 and MLC113)?
**A.** better body weight reduction, food intake suppression and glucose control

**Q.** And the glucose control ([1]; separate DIO study, FIG. 9C, versus MLC114 and MLC113)?
**A.** better body weight reduction, food intake suppression and glucose control

**Q.** What about the plasma triglyceride level ([1]; terminal plasma Day 22, FIG. 9D, relative to vehicle or MLC114 and MLC113) of the same molecule?
**A.** therapeutic efficacy in reducing plasma triglyceride, cholesterol and insulin levels

**Q.** And the plasma cholesterol level ([1]; terminal plasma Day 22, FIG. 9E, relative to vehicle or MLC114 and MLC113)?
**A.** therapeutic efficacy in reducing plasma triglyceride, cholesterol and insulin levels

**Q.** And the plasma insulin level ([1]; terminal plasma Day 22, FIG. 9F, relative to vehicle or MLC114 and MLC113)?
**A.** therapeutic efficacy in reducing plasma triglyceride, cholesterol and insulin levels

**Q.** What about the body weight loss [2] of the same molecule?
**A.** good efficacy on body weight loss and food intake suppression

**Q.** And the food intake suppression [2]?
**A.** good efficacy on body weight loss and food intake suppression

**Q.** What about the HMW % ([3]; 4.65 mg/mL at 4° C., Day 0) of the same molecule?
**A.** 0%

**Q.** What about the LMW % ([3]; 4.65 mg/mL at 4° C., Day 0) of the same molecule?
**A.** 0.43%

**Q.** What about the Main peak % ([3]; 4.65 mg/mL at 4° C., Day 0) of the same molecule?
**A.** 99.56%

**Q.** And the HMW % ([3]; 4.65 mg/mL at 4° C., Day 7)?
**A.** 0%

**Q.** What about the LMW % ([3]; 4.65 mg/mL at 4° C., Day 7) of the same molecule?
**A.** 0.51%

**Q.** What about the Main peak % ([3]; 4.65 mg/mL at 4° C., Day 7) of the same molecule?
**A.** 99.46%

**Q.** And the HMW % ([3]; 4.65 mg/mL at 4° C., Day 14)?
**A.** 0%

**Q.** What about the LMW % ([3]; 4.65 mg/mL at 4° C., Day 14) of the same molecule?
**A.** 0.39%

**Q.** What about the Main peak % ([3]; 4.65 mg/mL at 4° C., Day 14) of the same molecule?
**A.** 99.6%

**Q.** What about the HMW % ([3]; 4.65 mg/mL at 37° C., Day 0) of the same molecule?
**A.** 0%

**Q.** And the LMW % ([3]; 4.65 mg/mL at 37° C., Day 0)?
**A.** 0.43%

**Q.** And the Main peak % ([3]; 4.65 mg/mL at 37° C., Day 0)?
**A.** 99.56%

**Q.** And the HMW % ([3]; 4.65 mg/mL at 37° C., Day 7)?
**A.** 0.53%

**Q.** And the LMW % ([3]; 4.65 mg/mL at 37° C., Day 7)?
**A.** 0.56%

**Q.** What about the Main peak % ([3]; 4.65 mg/mL at 37° C., Day 7) of the same molecule?
**A.** 98.86%

**Q.** What about the HMW % ([3]; 4.65 mg/mL at 37° C., Day 14) of the same molecule?
**A.** 0.8%

**Q.** What about the LMW % ([3]; 4.65 mg/mL at 37° C., Day 14) of the same molecule?
**A.** 0.53%

**Q.** What about the Main peak % ([3]; 4.65 mg/mL at 37° C., Day 14) of the same molecule?
**A.** 98.6%

**Q.** And the HMW % ([3]; 20 mg/mL at 4° C., Day 0)?
**A.** 0%

**Q.** What about the LMW % ([3]; 20 mg/mL at 4° C., Day 0) of the same molecule?
**A.** 0.38%

**Q.** And the Main peak % ([3]; 20 mg/mL at 4° C., Day 0)?
**A.** 99.6%

**Q.** What about the HMW % ([3]; 20 mg/mL at 4° C., Day 7) of the same molecule?
**A.** 0%

**Q.** And the LMW % ([3]; 20 mg/mL at 4° C., Day 7)?
**A.** 0.49%

**Q.** And the Main peak % ([3]; 20 mg/mL at 4° C., Day 7)?
**A.** 99.49%

**Q.** What about the HMW % ([3]; 20 mg/mL at 4° C., Day 14) of the same molecule?
**A.** 0%

**Q.** And the LMW % ([3]; 20 mg/mL at 4° C., Day 14)?
**A.** 0.44%

**Q.** And the Main peak % ([3]; 20 mg/mL at 4° C., Day 14)?
**A.** 99.24%

**Q.** What about the HMW % ([3]; 20 mg/mL at 37° C., Day 0) of the same molecule?
**A.** 0%

**Q.** What about the LMW % ([3]; 20 mg/mL at 37° C., Day 0) of the same molecule?
**A.** 0.38%

**Q.** What about the Main peak % ([3]; 20 mg/mL at 37° C., Day 0) of the same molecule?
**A.** 99.6%

**Q.** What about the HMW % ([3]; 20 mg/mL at 37° C., Day 7) of the same molecule?
**A.** 1.03%

**Q.** And the LMW % ([3]; 20 mg/mL at 37° C., Day 7)?
**A.** 0.53%

**Q.** And the Main peak % ([3]; 20 mg/mL at 37° C., Day 7)?
**A.** 98.38%

**Q.** And the HMW % ([3]; 20 mg/mL at 37° C., Day 14)?
**A.** 1.81%

**Q.** What about the LMW % ([3]; 20 mg/mL at 37° C., Day 14) of the same molecule?
**A.** 0.55%

**Q.** What about the Main peak % ([3]; 20 mg/mL at 37° C., Day 14) of the same molecule?
**A.** 97.64%

**Q.** And the HMW % ([3]; 20 mg/mL at 40° C., Day 0)?
**A.** 0.56%

**Q.** What about the LMW % ([3]; 20 mg/mL at 40° C., Day 0) of the same molecule?
**A.** 0.54%

**Q.** What about the Main peak % ([3]; 20 mg/mL at 40° C., Day 0) of the same molecule?
**A.** 98.83%

**Q.** And the HMW % ([3]; 20 mg/mL at 40° C., Day 14)?
**A.** 2.26%

**Q.** And the LMW % ([3]; 20 mg/mL at 40° C., Day 14)?
**A.** 0.84%

**Q.** What about the Main peak % ([3]; 20 mg/mL at 40° C., Day 14) of the same molecule?
**A.** 96.76%

**Q.** And the “physical and chemical stability” value ([3]; 4° C., 37° C. and 40° C., 2 weeks)?
**A.** high physical and chemical stability

**Q.** And the “AUC0-96 h” value [4]?
**A.** 3.843 µM·h

**Q.** What about the “Terminal t1/2” value [4] of the same molecule?
**A.** 41 h

**Q.** What about the “Tmax” value [4] of the same molecule?
**A.** 16 h

**Q.** And the Cmax ([4]; read-out: Cmax (nmol/L))?
**A.** 56.2 nmol/L

Source: patent US11453711B2, “Fusion proteins of GLP-1 and GDF15 and conjugates thereof” (BEIJING QL BIOPHARMACEUTICAL CO., LTD., priority 2019, dated 2022)
